# Reference: PMC9364107 (The Journal of Biological Chemistry, 2022)
# T1: SF3B1 ULM5 peptide (residues 333–351), wildtype (human, UniProt O75533-1 333-351)
# T1 peptide: KRKSRWDETPASQMGGSTP
# Molecular target: T1, SF3B1 ULM5 peptide (residues 333–351), …
# Test: ITC
row,fold reduction in binding affinity against wildtype U2AF2 UHM [fold],Binder
1,~20,U2AF2 UHM E394K (domain or fragment) TEVLCLMNMVLPEELLDDEKYEEIVEDVRDECSKYGLVKSIEIPRPVDGVEVPGCGKIFVEFTSVFDCQKAMQGLTGRKFANRVVVTKYCDPDSYHRRDFW
2,4,U2AF2 UHM K453A (domain or fragment) TEVLCLMNMVLPEELLDDEEYEEIVEDVRDECSKYGLVKSIEIPRPVDGVEVPGCGKIFVEFTSVFDCQKAMQGLTGRAFANRVVVTKYCDPDSYHRRDFW
3,~100,U2AF2 UHM E397K (domain or fragment) TEVLCLMNMVLPEELLDDEEYEKIVEDVRDECSKYGLVKSIEIPRPVDGVEVPGCGKIFVEFTSVFDCQKAMQGLTGRKFANRVVVTKYCDPDSYHRRDFW
